Patent US20250206819A1 (MorphoSys, published 2025)
Several values for one entry are separate records, joined by “and”; a condition that tells them apart may be missing. Equal entries are not always repeated.

Columns and labels:
[1] = molecular target: T1, human CD3 expressed on cells (Jurkat cells, human T cells) (human, UniProt P07766 22-207); assay: cell-based or functional assay
[2] = molecular target: T1, human CD3 expressed on cells (Jurkat …); assay: cell-based or functional assay; remark: listed apart in the source
[3] = molecular target: Mature human CD3e(22-118)_FLAG-chLys_Avi (human); assay: BLI (Octet), bispecific captured, antigen as analyte; heterogenous binding
Sequence of Mature human CD3e(22-118)_FLAG-chLys_Avi (human) (chain, as listed by the source limits assumed): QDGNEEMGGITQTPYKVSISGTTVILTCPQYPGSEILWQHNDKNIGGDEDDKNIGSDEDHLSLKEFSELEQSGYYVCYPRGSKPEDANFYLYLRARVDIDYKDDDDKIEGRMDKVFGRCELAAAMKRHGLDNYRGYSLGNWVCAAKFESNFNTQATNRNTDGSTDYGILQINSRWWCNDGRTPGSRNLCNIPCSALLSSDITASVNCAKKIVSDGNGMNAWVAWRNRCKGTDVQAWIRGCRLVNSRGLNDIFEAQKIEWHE
Description: (§1) Affinity determination by determining kinetic rate constants was performed on an Octet HTX (FortéBIO, Sartorius AG) instrument. […] The association phase was recorded for 180 s, followed by a dissociation phase of 300 s. After each cycle, the biosensors were regenerated two times with 10 mM Glycine HCl pH 1.7 to remove bound ligand/antibody complex, while maintaining the integrity of the capture surface. Between regeneration steps, biosensors were washed with assay buffer for 20 s. Sensorgrams were evaluated with Data Analysis Software v 10 (Octet/fortébio). All sensorgrams were fitted to a 1:1 binding model to determine kₒₙ and koff rate constants, which were used to calculate the KD value. For kinetic profiles deviating from the expected 1:1 binding, the sensorgrams were evaluated using a best approximation to the monovalent kinetics, and results marked with comment “heterogeneous binding”.

[4] = molecular target: Mature human CD3e(22-118)_FLAG-chLys_Avi (human); assay: BLI (Octet), bispecific captured, antigen as analyte
Description: as §1

[5] = molecular target: T1, human CD3 expressed on cells (Jurkat …); assay: flow cytometry on Jurkat cells
Description: Target cells were mixed with the bispecific antibodies serially diluted (final concentration: 0.1 nM-200 nM) in D-PBS (Gibco) containing 3% fetal bovine serum (Sigma, #F7524) and incubated for 1 h on ice. Cells were washed 2 times in D-PBS (Gibco) containing 3% fetal bovine serum (Sigma, #F7524) and 0.02% […]. […] Antibody staining was measured using FACS Array (Beckton Dickinson) or IntelliCyt iQue flow cytometer and analyzed in FlowJo or ForeCyt (IntelliCyt) softwares, respectively. EC₅₀ values were calculated using 4-parameter non-linear regression analysis in Prism software (GraphPad Software Inc.).

[6] = molecular target: T2, Mature human CD3e(22-49)_Fc2(K105-K330) (human); assay: ELISA, antigen coated on plate
T2 construct: also called hCD3e(22-49)-Fc2(K105-K330); recombinant human CD3e (22-49)-Fc2 (K105-K330)
Description: (§2) Bispecific Fab₂-Fc-scFv antibodies according Example 1.2 were tested for their ability to bind to recombinant human and cynomolgus CD3epsilon antigen in ELISA. 5 nM of recombinant human CD3e (22-49)-Fc2 (K105-K330) (SEQ ID NO: 41) or 1 nM of recombinant cynomolgus CD3e (22-49)-Fc2(K105-K330) (SEQ ID NO: 42) were coated on Maxisorp plates (Nunc, #460518). Coated plates were blocked with 5% skim milk in PBS. Antibodies were serially diluted in PBS containing 0.5% skim milk and 0.5% Tween-20. […] EC₅₀ values were calculated using 4-parameter non-linear regression analysis in Prism software (GraphPad Software Inc.)

[7] = molecular target: T3, Mature cynomolgus CD3e(22-49)_Fc2(K105-K330) (cynomolgus); assay: ELISA, antigen coated on plate
T3 construct: also called cyCD3e(22-49)-Fc2(K105-K330); recombinant cynomolgus CD3e (22-49)-Fc2(K105-K330)
Description: as §2

[8] = molecular target: T1, human CD3 expressed on cells (Jurkat …); assay: cell-based or functional assay; remark: listed apart in the source
[9] = molecular target: Mature human CD3e(22-118)_FLAG-chLys_Avi (human); assay: BLI (Octet), bispecific captured, antigen as analyte; remark: listed apart in the source
Description: Sensorgrams were evaluated with Data Analysis Software v 10 (Octet/fortébio). All sensorgrams were fitted to a 1:1 binding model to determine kₒₙ and koff rate constants, which were used to calculate the KD value. For kinetic profiles deviating from the expected 1:1 binding, the sensorgrams were evaluated using a best approximation to the monovalent kinetics, and results marked with comment “heterogeneous binding”.

[10] = molecular target: T1, human CD3 expressed on cells (Jurkat …); assay: flow cytometry on human T cells, 167 nM antibody

T1 sequence (P07766 22-207): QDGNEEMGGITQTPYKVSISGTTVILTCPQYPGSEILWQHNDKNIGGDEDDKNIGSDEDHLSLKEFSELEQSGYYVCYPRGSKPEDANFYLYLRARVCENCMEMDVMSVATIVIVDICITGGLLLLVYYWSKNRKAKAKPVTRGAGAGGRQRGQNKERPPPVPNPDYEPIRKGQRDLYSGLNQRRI

Binder | Reporter gene assay MCF-7 EC50 [1] [nM] | Reporter gene assay SKOV3 EC50 [1] [nM] | T cell mediated killing MCF-7 [T cells] IC50 [pM] [2] | T cell mediated killing SKBR3 [PBMCs] IC50 [pM] [2] [pM] | Kd [3] [nM] | koff [4] [s⁻¹] | kon [4] [M⁻¹ s⁻¹] | EC50 [5] [nM] | EC50 [6] [nM] | EC50 [7] [nM] | RGA @ antibody conc. of 1 nM [S/BG] SKBR3 (Jurkat NFAT reporter gene assay) [8] [S/BG] | Kd [9] [nM] | T cell binding @ antibody conc. of 167 nM [S/BG] [10] [S/BG]
BissIg_18_opt_cc# (bispecific antibody, human IgG1, kappa, lambda) heavy 1: not shown light 1: not shown heavy 2: EVQLVESGGGLVQPGGSLRLSCAASGFSFGSHYMSWVRQAPGKGLEWVANINQIGYSSYYVESVKGRFTISRDNAKNSLYLQMNSLRAEDTAVYYCARGYSAEFAHRSGLDVWGQGTLVTVSSASTKGPSVFPLAPSSKSTSGGTAALGCLVKDYFPEPVTVSWNSGALTSGVHTFPAVLQSSGLYSLSSVVTVPSSSLGTQTYICNVNHKPSNTKVDKRVEPKSCDKTHTCPPCPAPEAEGAPSVFLFPPKPKDTLMISRTPEVTCVVVDVSHEDPEVKFNWYVDGVEVHNAKTKPREEQYNSTYRVVSVLTVLHQDWLNGKEYKCKVSNKALPSSIEKTISKAKGQPREPQVYTLPPSREEMTKNQVSLTCLVKGFYPSDIAVEWESNGQPENNYKTTPPVLDSDGSFLLYSKLTVDKSRWQQGNVFSCSVMHEALHNHYTQKSLSLSPGK light 2: not shown | < 0.2 | 0.07 | < 10 pM and 13.2 pM | 1.8 | 0.9 | 0.0011 | 1.2e+06 | 7 |  |  |  |  | 
BissIg_18_opt_VH#1 (bispecific antibody, V domains shown, 1+1 IgG1 made by Fab-arm exchange; AEASS Fc; F405L in the CD3 half, K409R in the HER2 half) VH 1: not shown VL 1: not shown VH 2: EVQLVESGGGLVQPGGSLRLSCAASGFSFGSHYMSWVRQAPGKGLEWVANINQIGYSSYYVESVKGRFTISRDNAKNSLYLQMNSLRAEDTAVYYCARGYSAEFAHRSGLDVWGQGTLVTVSS VL 2: QSVLTQPPSASGTPGQRVTISCSGSSSNIGSNYVYWYQQLPGTAPKLLIYRNNQRPSGVPDRFSGSKSGTSASLAISGLRSEDEADYYCAAWDHHRSGAVFGGGTKLTVLGQ | 0.33 | 0.18 | 210 pM | 15 | 17 | 0.0044 | 250000 | 9 |  |  |  |  | 
BissIg_18_opt_VL (bispecific antibody, V domains shown, 1+1 IgG1 made by Fab-arm exchange; AEASS Fc; F405L in the CD3 half, K409R in the HER2 half) VH 1: not shown VL 1: not shown VH 2: EVQLVESGGGLVQPGGSLRLSCAASGFTFSSYWMSWVRQAPGKGLEWVANIKQDGSEKYYVDSVKGRFTISRDNAKNSLYLQMNSLRAEDTAVYYCARGYSAEFAHRSGLDVWGQGTLVTVSS VL 2: QSVLTQPPSASGTPGQRVTISCSGSSSNIGSNYVYWYQQLPGTAPKLLIYRNNQRPSGVPDRFSGSKSGTSASLAISGLRSEDEADYYCAGWSRSLHGAVFGGGTKLTVLGQ |  |  |  |  | 28 | 0.0041 | 150000 |  |  |  |  |  | 
Bisslg_08_#GP (bispecific antibody, Format as Bisslg_08_#1: aglycosylated human IgG1, AEASS Fc, knob-into-hole; also called CD3-MABGP in the bispecific 2+1 Fab2-Fc-scFv format; grandparent antibody CD3-MABGP) VH: not shown VL: not shown scFv: QSVLTQPPSASGTPGQRVTISCSGSSSNIGSNYVYWYQQLPGTAPKLLIYRNNQRPSGVPDRFSGSKSGTSASLAISGLRSEDEADYYCAAWDHHRSGAVFGGGTKLTVLGQAQPAAPAPNAHEAPAPAQGSEVQLVESGGGLVQPGGSLRLSCAASGFTFSSYWMSWVRQAPGKGLEWVANIKQDGSEKYYVDSVKGRFTISRDNAKNSLYLQMNSLRAEDTAVYYCARGYSAEFAHRSGLDVWGQGTLVTVSS |  |  |  |  |  |  |  |  | 248 | 369 | 1 | 240 | 1.4
